# B1: Oxalyl-CoA synthetase from Saccharomyces cerevisiae, K352D variant (enzyme, S. cerevisiae, UniProt P38137 1-543, looked up)
# chain: MTSAATVTASFNDTFSVSDNVAVIVPETDTQVTYRDLSHMVGHFQTMFTNPNSPLYGAVFRQDTVAISMRNGLEFIVAFLGATMDAKIGAPLNPNYKEKEFNFYLNDLKSKAICVPKGTTKLQSSEILKSASTFGCFIVELAFDATRFRVEYDIYSPEDNYKRVIYRSLNNAKFVNTNPVKFPGFARSSDVALILHTSGTTSTPKTVPLLHLNIVRSTLNIANTYKLTPLDRSYVVMPLFHVHGLIGVLLSTFRTQGSVVVPDGFHPKLFWDQFVKYNCNWFSCVPTISMIMLNMPKPNPFPHIRFIRSCSSALAPATFHKLEKEFNAPVLEAYAMTEASHQMTSNNLPPGDRKPGTVGQPQGVTVVILDDNDNVLPPGKVGEVSIRGENVTLGYANNPKANKENFTKRENYFRTGDQGYFDPEGFLVLTGRIKELINRGGEKISPIELDGIMLSHPKIDEAVAFGVPDDMYGQVVQAAIVLKKGEKMTYEELVNFLKKHLASFKIPTKVYFVDKLPKTATGKIQRRVIAETFAKSSRNKSKL
# Target: the molecule itself
# Assay: SAXS
protein,measurement,value
B1,stoichiometry N,2

# — article doi:10.1101/2022.08.30.505785 (bioRxiv, 2022)
